Test results as given in patent publication US20240150440A1 (LUMEN BIOSCIENCE, published 2024).

Legend:
[1] = target: T1, SARS-CoV-2 spike protein on pseudotyped lentivirus (Wuhan Reference Pseudovirus) (SARS-CoV-2, UniProt P0DTC2 14-1273); assay: cell-based or functional assay
[2] = target: T2, recombinant SARS-CoV-2 RBD with C-terminal AviTag (SARS-CoV-2, UniProt P0DTC2 319-541); assay: BLI, biotinylated RBD on streptavidin biosensors [Cont. 3]
[3] = target: T2, recombinant SARS-CoV-2 RBD with …; assay: BLI, biotinylated RBD on streptavidin biosensors; BLD: below limit of detection
[4] = target: T2, recombinant SARS-CoV-2 RBD with …; assay: ELISA, competition with coated ACE2-Fc for RBD [Cont. 3]
[5] = target: T2, recombinant SARS-CoV-2 RBD with …; assay: BLI, biotinylated RBD on streptavidin biosensors; OR: over-range [Cont. 3]
[6] = target: T2, recombinant SARS-CoV-2 RBD with …; assay: ELISA, competition with coated ACE2-Fc for RBD
[7] = target: T2, recombinant SARS-CoV-2 RBD with …; assay: BLI, biotinylated RBD on streptavidin biosensors; OR: over-range
[8] = target: T1, SARS-CoV-2 spike protein on pseudotyped …; assay: cell-based or functional assay; remark: listed apart in the source
[9] = target: T2, recombinant SARS-CoV-2 RBD with …; assay: BLI, biotinylated RBD on streptavidin biosensors [Cont. 1]
[10] = target: T2, recombinant SARS-CoV-2 RBD with …; assay: ELISA, competition with coated ACE2-Fc for RBD [Cont. 1]
[11] = target: T2, recombinant SARS-CoV-2 RBD with …; assay: BLI, biotinylated RBD on streptavidin biosensors [Cont. 2]
[12] = target: T2, recombinant SARS-CoV-2 RBD with …; assay: ELISA, competition with coated ACE2-Fc for RBD [Cont. 2]
[13] = target: T2, recombinant SARS-CoV-2 RBD with …; assay: BLI, biotinylated RBD on streptavidin biosensors [Cont. 5]
[14] = target: T2, recombinant SARS-CoV-2 RBD with …; assay: ELISA, competition with coated ACE2-Fc for RBD [Cont. 5]
[15] = target: T1, SARS-CoV-2 spike protein on pseudotyped …; assay: cell-based or functional assay; remark: listed apart in the source
[16] = target: T2, recombinant SARS-CoV-2 RBD with …; assay: BLI, biotinylated RBD on streptavidin biosensors, global 1:1 fit
[17] = target: T1, SARS-CoV-2 spike protein on pseudotyped …; assay: cell-based or functional assay; remark: listed apart in the source
[18] = target: T2, recombinant SARS-CoV-2 RBD with …; assay: BLI, biotinylated RBD on streptavidin biosensors
[19] = target: T2, recombinant SARS-CoV-2 RBD with …; assay: ELISA, competition with coated human ACE2-FC for RBD-AviTag

B1: PP826 MBP-R5C-A2-H6 (VHH)
VHH: QVQLVESGGGLVQPGGSLRLSCAASGDIFSKNAMHWVRQAPGKQREFVAGIYSDGSSLYADSVKGRFTISRDNAKNTVYLQMNSLKPEDTAVYYCAALDYSARYRTWGQGTQVTVSS
notes: Form: Monomer
[1]
  infectivity % under 10 ug/mL VHH treatment: 70.6%
[2]
  Kd: 420 nM

B2: PP802 MBP-R2A-C5-H6 (VHH)
VHH: QVQLVESGGGLVQPGGSLRLSCAASGTWGNIQYLSWFRQAPGKRREFVAAITPNNGTNYADSVKGRFTISRDNAKNTVYLQMNSLKPEDTAVYYCTAVLWYTTKEGPYDYWGQGTQVTVSS
notes: Form: Monomer
[1]
  infectivity % under 10 ug/mL VHH treatment: 87.8%
[3]
  Kd: ~23 µM

B3: MBP-5HVZ-R2A-C5-H6 (VHH, not shown: large carriers; small tags and cut ends)
VHH: B2 VHH
[3]
  Kd: ~3.25 µM

B4: PP828 MBP-R5C-B2-H6 (VHH)
VHH: QVQLVESGGGLVQPGGSLRLSCAASGSIFSLNWVHWFRQAPGKSREGVASINSGGHADYSDSVKGRFTISRDNAKNTVYLQMNSLKPEDTAVYYCAAGPYGAYNFNSWGQGTQVTVSS
notes: Form: Monomer
[1]
  infectivity % under 10 ug/mL VHH treatment: 73.4%
[4]
  IC50: 373 nM
[5]
  Kd: ~1370 nM

B5: PP807 MBP-R2C-B3-H6 (VHH)
VHH: QVQLVESGGGLVQPGGSLRLSCAASGTYASYETIAWYRQAPGKQREKVARITGAGSSFYADSVKGRFTISRDNAKNTVYLQMNSLKPEDTAVYYCNADSIPPALRAANTGYWGQGTQVTVSS
notes: Form: Monomer
[1]
  infectivity % under 10 ug/mL VHH treatment: 75.3%
[6]
  IC50: 148 nM
[7]
  Kd: ~950 nM

B6: dimeric VHH (VHH-5HVZ-MBP) R2C-G6 (VHH)
VHH: QVQLVESGGGLVQPGGSLRLSCAASGSIYKYSDVHWFRQAPGKAREAVALLTGAGTTIYGDSVKGRFTISRDNAKNTVYLQMNSLKPEDTAVYYCAAGQGFKATRTFDSWGQGTQVTVSS
[8]
  Pseudovirus inhibition IC50 [Cont. 1]: 134 nM
[9]
  Kd: 35.7 nM
[10]
  IC50: 3.9 nM

B7: PP819 MBP-R5A-C5-H6 (VHH)
VHH: QVQLVESGGGLVQPGGSLRLSCAASGDIFSINALHWFRQAPGKQREEVAAITSGGSTGYADSVKGRFTISRDNAKNTVYLQMNSLKPEDTAVYYCAAQQARGGLDSDYWGQGTQVTVSS
notes: Form: Monomer
[1]
  infectivity % under 10 ug/mL VHH treatment: 54.1%
[11]
  Kd: 42.1 nM
[12]
  IC50: 71.9 nM

B8: PP822 MBP-R5A-E5-H6 (VHH)
VHH: QVQLVESGGGLVQPGGSLRLSCAASGYDFDILRMAWFRQAPGKEREMVAAITSAESVNYEDSVKGRFTISRDNAKNTVYLQMNSLKPEDTAVYYCATYDYTDDYGYASWGQGTQVTVSS
notes: Form: Monomer
[1]
  infectivity % under 10 ug/mL VHH treatment: 71.6%
[11]
  Kd: 6.97 nM
[12]
  IC50: 183 nM

B9: PP846 MBP-R5D-G6-H6 (VHH)
VHH: QVQLVESGGGLVQPGGSLRLSCAASGRILAANIVHWYRQAPGKNREGVAGITSGGSTYYADSVKGRFTISRDNAKNTVYLQMNSLKPEDTAVYYCAAKPLGSPDDFDYWGQGTQVTVSS
notes: Form: Monomer
[1]
  infectivity % under 10 ug/mL VHH treatment: 77.1%
[13]
  Kd: 564 nM
[14]
  IC50: 7.5 nM

B10: PP813 MBP-R2E-D2-H6 (VHH)
VHH: QVQLVESGGGLVQPGGSLRLSCAASGHQLSTNATHWFRQAPGKNREFVASIGSGSSSYYADSVKGRFTISRDNAKNTVYLQMNSLKPEDTAVYYCTALGGDELDGMTYDYWGQGTQVTVSS
notes: Form: Monomer
[1]
  infectivity % under 10 ug/mL VHH treatment: 75.5%
[9]
  Kd: 100 nM

B11: R5D-D4 (competition ELISA sample) (VHH)
VHH: QVQLVESGGGLVQPGGSLRLSCAASGSDFTINAMHWFRQAPGKQREFVATITSTSSTAYRDSVKGRFTISRDNAKNTVYLQMNSLKPEDTAVYYCAAFAVRDADTAGWTARDYWGQGTQVTVSS
[15]
  Pseudovirus inhibition IC50 [Cont. 5]: 166 nM
[13]
  Kd: 130 nM
[14]
  IC50: 48.1 nM
[16]
  Kd: 130 nM

B12: PP803 MBP-R2A-F3-H6 (VHH)
VHH: QVQLVESGGGLVQPGGSLRLSCAASGSITSINWMHWFRQAPGKDREGVASISQTGRGSYADSVKGRFTISRDNAKNTVYLQMNSLKPEDTAVYYCAAASRTGTPYNYWGQGTQVTVSS
notes: Form: Monomer
[1]
  infectivity % under 10 ug/mL VHH treatment: 70.7%
[7]
  Kd: ~1900 nM

B13: dimeric VHH (VHH-5HVZ-MBP) R2A-F3 (VHH)
VHH: B12 VHH
[17]
  Pseudovirus inhibition IC50: 272 nM
[18]
  Kd: 5.66 nM
[6]
  IC50: 1.6 nM
[16]
  Kd: 5.7 nM
[19]
  IC50 (read off the curve): ~2 nM
